These results are taken from article PMC4370635, “ARF6 Promotes the Formation of Rac1 and WAVE-Dependent Ventral F-Actin Rosettes in Breast Cancer Cells in Response to Epidermal Growth Factor” (PLoS ONE, 2015).

This experiment deals with T1, GST fused with the ARF6-binding domain (LZII, leucine zipper II domain) of human JIP3 (aa 371-507) (human, UniProt Q9UPT6 371-507).
T1 construct: JIP3, human, residues 371-507 (LZII, leucine zipper II domain); also called GST-LZII; LZII domain of human JIP3; source: pGEX construct, purified as described [35]; not shown: GST, N-terminal, kept
T1 sequence (looked up): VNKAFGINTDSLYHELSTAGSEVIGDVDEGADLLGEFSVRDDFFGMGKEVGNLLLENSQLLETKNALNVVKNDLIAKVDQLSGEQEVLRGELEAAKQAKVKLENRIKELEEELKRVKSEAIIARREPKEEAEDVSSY
In words: pull-down; GST-LZII (37 ug/reaction) incubated with cleared MDA-MB-231 cell lysates for 15 min at 4°C with 0.5% BSA, then glutathione-Sepharose beads for 1 h at 4°C; lysis buffer 50 mM Tris pH 7.4, 137 mM NaCl, 10 mM MgCl2, 10% glycerol, 1% Triton-X100; bound proteins immunoblotted with anti-ARF6 monoclonal antibody. The note with it: one partner purified. Background: A western blot detects proteins with antibodies after separation by electrophoresis.

B1: ARF6T157N (natural protein, UniProt P62330 1-175, looked up)
chain: MGKVLSKIFGNKEMRILMLGLDAAGKTTILYKLKLGQSVTTIPTVGFNVETVTYKNVKFNVWDVGGQDKIRPLWRHYYTGTQGLIFVVDCADRDRIDEARQELHRIINDREMRDAIILIFANKQDLPDAMKPHEIQEKLGLTRIRDRNWYVQPSCANSGDGLYEGLTWLTSNYKS
notes: ADP-ribosylation factor 6 (ARF6), fast-cycling mutant T157N; also called fast-cycling mutant of ARF6; ARF6T15TN
For B1, the “fold increase in GTP-ARF6 pulled down, against parental MDA-MB-231 cells” value was approximately 4 fold.
